Measured values: patent US7303917B2, “Modification of pollen coat protein composition” (priority 1998, dated 2007)
Entries after “also recorded” stand apart in the source; their conditions may differ.

T1: papain (Carica papaya, UniProt P00784)
T1 sequence (P00784 whole entry, looked up): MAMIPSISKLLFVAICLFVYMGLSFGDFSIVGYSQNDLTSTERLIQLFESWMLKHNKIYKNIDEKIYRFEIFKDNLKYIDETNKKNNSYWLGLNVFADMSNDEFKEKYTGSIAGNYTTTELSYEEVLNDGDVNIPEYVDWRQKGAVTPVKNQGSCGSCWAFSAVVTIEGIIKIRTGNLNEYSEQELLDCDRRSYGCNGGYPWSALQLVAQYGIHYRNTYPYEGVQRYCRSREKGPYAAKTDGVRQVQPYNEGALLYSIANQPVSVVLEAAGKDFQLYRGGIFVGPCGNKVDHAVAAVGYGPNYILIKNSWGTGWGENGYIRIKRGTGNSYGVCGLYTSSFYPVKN

B1: Papain: cysteine protease papain (twice crystallized, Sigma) (protein, UniProt P00784 134-345, looked up)
Papain: IPEYVDWRQKGAVTPVKNQGSCGSCWAFSAVVTIEGIIKIRTGNLNEYSEQELLDCDRRSYGCNGGYPWSALQLVAQYGIHYRNTYPYEGVQRYCRSREKGPYAAKTDGVRQVQPYNEGALLYSIANQPVSVVLEAAGKDFQLYRGGIFVGPCGNKVDHAVAAVGYGPNYILIKNSWGTGWGENGYIRIKRGTGNSYGVCGLYTSSFYPVKN
B2: OV7: phage displaying the Onchocerca volvulus cysteine protease inhibitor OV7 on their surface as fusion to gene 3 coat protein (protein)
chain: AKNPSKMESKTGENQDRPVLLGGWEDRDPKDEEILELLPSILMKVNEQSNDEYHLMPIKLLKVSSQVVAGVKYKMDVQVARSQCKKSSNEKVDLTKCKKLEGHPEKVMTLEVWEKPWENFMRVEILGTKEV
modifications: left off: large carriers
B3: onchocystatin (OV7): recombinant cysteine protease inhibitor onchocystatin (OV7) from Onchocerca volvulus (protein)
chain: AKNPSKMESKTGENQDRPVLLGGWEDRDPKDEEILELLPSILMKVNEQSNDEYHLMPIKLLKVSSQVVAGVKYKMDVQVARSQCKKSSNEKVDLTKCKKLEGHPEKVMTLEVWEKPWENFMRVEILGTKEV
B4: OV7-GST: cysteine protease inhibitor OV7 conjugated to GST (protein)
chain: AKNPSKMESKTGENQDRPVLLGGWEDRDPKDEEILELLPSILMKVNEQSNDEYHLMPIKLLKVSSQVVAGVKYKMDVQVARSQCKKSSNEKVDLTKCKKLEGHPEKVMTLEVWEKPWENFMRVEILGTKEV
modifications: left off: a dimerising Fc or GST

Assays:
[1] = tested on: Nicotiana tabacum cv. Delgold pollen; assay: In vitro germination of tobacco pollen; format: cell-based; settings: 42 μM papain, 71 μM cycloheximide; for effect on germination and pollen tube growth: 30 μM onchocystatin added to 42 μM papain; for Average Pollen Tube Length / Pollen Germination: 3 h culture, 25° C, 30 μM onchocystatin, 1 mg/ml casein
Description: Pollen from Nicotiana tabacum cv. Delgold was harvested by placing 5 dehiscent anthers in 1 ml of sterile Brewbaker and Kwack medium (Brewbaker, J. and Kwack, B. Amer. J. Bot. 50: 859-865 (1963)) containing various concentrations of cylcoheximide, or papain, or casein. The medium consisted of 10% w/v sucrose, 100 ppm H3BO3, 300 ppm Ca (NO3)2.4H2O, 200 ppm MgSO4.7H2O, and 100 ppm KNO3 with either 42 μM papain (twice crystallized, Sigma), with or without 30 μM recombinant onchocystatin, or 71 μM cycloheximide (Sigma), or 1 mg/ml casein. Anthers were vortexed in medium for 30 sec followed by centrifugation at 2,000 rpm for 2 min. Pollen was cultured in 50 μl drops in sterile 15×60 mm petri dishes at 25° C. The percentage of pollen grains germinated after 3 h of culture was measured and the average pollen tube length was recorded using an ocular micrometer on an inverted microscope.

papain [2] = target: papain (Carica papaya, UniProt P00784); assay: Protease inhibition assay (papain, Pyr-Phe-Leu-pNA); format: biochemical; settings: 20 ng papain, 2 to 3 h, read at 410 nm
Description: (§1) Mature pollen was isolated by gently squeezing anthers from open flowers just prior to anther dehiscence in a microfuge tube with a pestle to release the pollen grains and suspend them in extraction buffer (100 mM HEPES pH 7.5, 10 mM KCl, 1 mM MgCl2, 1 mM EDTA, 1 mM DTT, 0.4 M sucrose, 0.01% Triton X-100). Pollen grains were filtered through […] mesh to remove debris, pelleted by centrifugation and frozen in liquid nitrogen. Pollen grains were ground to a fine powder, mixed with 1.4 μl per anther of extraction buffer (100 mM MES pH 6.5, 1% Triton X-100) and centrifuged at 4° C. for 5 min. Protein contents of extracts were determined using the BioRad Protein Assay.
(§2) For the protease inhibition assay, 5 μg of protein extract in 50 μl of extraction buffer described above was added to a microtiter plate followed by 20 ng of papain in 50 μl of 50 mM MES pH6.5 and incubated for 15 min at room temperature. Then 100 μl of substrate solution (1 mM Pyr-Phe-Leu-pNA (BACHEM) in activation buffer (30% DMSO, 1 mM EDTA,.1 mM DTT in 50 mM MES pH 6.5)) was added and the plate incubated in the dark at room temperature. The plate was read after 2 to 3 h of incubation on a plate reader at 410 nm. Results were calculated as the percentage of papain protease activity present in the mature pollen protein extract of the non-transformed control plant±standard deviation. […]

anti-OV7 antibodies = assay: Phage ELISA, wells coated with anti-OV7 antibodies; format: binding, rabbit; settings: well coated with anti-OV7 antibodies; phage diluted 1 in 100
Description: (§3) A SacI and Nco I digest of the coding region of the protease inhibitor clone OV7 (Lustigman et al 1991), is ligated to the pCantab 5E vector (Pharmacia Biotech) Sac I and Nco I sites. This phagemid is transformed into E. coli TG1 cells by electroporation. An overnight culture of 10 μL of these cells are grown in 5 ml of SOBAG medium containing 10 μl of carbenicillin (50 mg/mL) at 28° C. The next day, 0.5 ml of this culture is used to inoculate 25 ml of 2×YT medium, containing 50 μl of carbenicillin (50 mg/ml) and 1.56 ml of 2M glucose and grown for 1.25 h at 37° C., with shaking at 250 rpm. At this point 62.5 μl of helper phage strain M13K07 ([…]) is added and the cells were incubated at 37° C. for 30 min with shaking at 150 rpm, and for another 30 min at 250 rpm. Recombinant phage particles are harvested by centrifugation and PEG precipitation. […]
(§4) After incubating the phage indicated (OV7-those displaying the cysteine protease inhibitor on their surface, M13-wild type or control phage not displaying any foreign protein, and a no phage control) for 2 h, the wells are washed in PBS with 0.5% Tween-20. Phage particles that bound to the antigens are detected with a 1:5000 dilution of anti-M13 antibody/HRP conjugate (Pharmacia). Detection is with the HRP substrate ABTS solution (Pharmacia) for 30 min and absorbance was measured at 410 nm.

[3] = Phage ELISA, no antigen coated in well; format: binding
Description: as §3, §4

trypsin = assay: Phage ELISA, wells coated with trypsin; format: binding; settings: well coated with trypsin
Description: as §3, §4

papain [4] = target: T1, papain; assay: Phage ELISA, wells coated with papain; format: binding; settings: well coated with papain
Description: as §3, §4

papain [5] = target: T1, papain; assay: Protease inhibition assay (papain, Pyr-Phe-Leu-pNA); format: biochemical; settings: 20 ng papain, 2 to 3 h, read at 410 nm; remark: listed apart in the source
Description: as §1, §2

Molecule | effect on germination and pollen tube growth [1] | Average Pollen Tube Length [1] | Pollen Germination [1] | other results
C[C@@H]1C[C@@H]([C@H](O)CC2CC(=O)NC(=O)C2)C(=O)[C@@H](C)C1 [Cycloheximide, cycloheximide] | inhibited the germination and elongation of pollen tubes | 15 μm | 27% | 
CC(C)C[C@H](NC(=O)[C@H]1O[C@@H]1C(=O)O)C(=O)NCCCCN=C(N)N [E-64, reference compound] |  |  |  | percentage of papain protease activity of the non-transformed control plant extract (papain [2]): 3%
Casein |  | 95 μm | 74% | 
B1 | inhibited the germination and stunted the growth of pollen tubes | 28 μm | 56% | 
B2 |  |  |  | O.D.410 (anti-OV7 antibodies): 0.451; Result [3]: very little OV7-plate; O.D.410 ([3]; phage diluted 1 in 100): 0.125; Result (trypsin): does not bind to trypsin; also recorded: no OV7-trypsin interaction; O.D.410 (trypsin; phage diluted 1 in 100): 0.037; Result (papain [4]): binding specifically to papain; O.D.410 (papain [4]; phage diluted 1 in 100): 0.788
B3 | restored the germination and pollen tube growth |  |  | 
B4 |  |  |  | percentage of papain protease activity of the non-transformed control plant extract (papain [5]): 2%
